Measured values: the supplement of paper PMC10567573
± gives the standard deviation.

Test: protein stability index of a GFP-peptide fusion (GPS, HEK-293T) (PSI 1-6); higher = more stable
Conditions: c terminus: a fixed tail appended
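Note: 24-mer peptide tiles fused after GFP, lentivirally expressed, FACS-sorted into six equal bins by GFP/DsRed ratio, decoded by Illumina sequencing, PSI is the read-weighted mean bin number.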

Sequence	protein stability index (treatment: DMSO)	protein stability index (treatment: MLN4924 1 uM, 8 h)
LQSLDDTELRLLGRTHSACDALRT [RSAD1]	3.64 ± 0.2	3.85 ± 0.18
LRAELQGHHAEKLPAGAGAPKAGL [TNFSF13B]	4.34 ± 0.32	4.45 ± 0.35
LRALKLVITALKCHKYDRNIQVTG [ZER1]	3.14 ± 0.42	3.16 ± 0.65
LRDKIMATTIDNSRVILEIDNARL [KRT15]	2.59 ± 0.27	2.66 ± 0.2
LRESIASYLSLTSEDNTSFDRKKK [SLA]	3.9 ± 0.16	3.81 ± 0.15
LRGALQQGEAFQRALESELQQLRA [PBXIP1]	3.56 ± 0.24	3.67 ± 0.23
LRGSYNSLHDGSDGLDGISVGSYL [LURAP1L]	3.08 ± 0.24	3.1 ± 0.15
LRVLGSMCQRLRSMQYNGSYFDRG [DFFB]	2.14 ± 0.29	2.23 ± 0.17
LSFAHANCTLIISYQKPKEVVVAE [DPCD]	2.69 ± 0.84	2.79 ± 0.73
LSFYNVTDRSHIYTFTDTFTEKLW [TRIM39]	2.52 ± 0.31	2.3 ± 0.32
LSIINFFERLCLTWMFFFMMCVAE [PHTF1]	3.41 ± 1.2	2.81 ± 0.2
LSKDHQEVETEGPESADTGDKSES [TOR1AIP2]	5.67 ± 0.18	5.59 ± 0.19
LSLEEELSRVKAAALSERGQAEEE [LRRC45]	5.45 ± 0.2	5.37 ± 0.16
LSQMGAQSSGKILLCPLCQEEEQA [TRIM15]	3.85 ± 0.5	4.39 ± 0.23
LSRLSVNSVTAGDYSRPLHISTFI [TSN]	2.42 ± 0.61	2.31 ± 0.24
LSWYRGRRPRTAFTQNQIEVLENV [HESX1]	3.03 ± 0.094	3 ± 0.28
LTEQQEQLRGQLQDLDSRLRAGSS [RASAL3]	5.08 ± 0.18	5.19 ± 0.23
LTEQVWKVQDALQNQSDSLLALAG [SCARA5]	3.65 ± 0.16	3.82 ± 0.37
LTKLLASKSKEEVSSLISEKTNGA [FEM1C]	4.07 ± 0.22	4.38 ± 0.26
LTNSNLPEEELDFFEILRLFFPVI [CNOT7]	2.39 ± 0.31	2.47 ± 0.41
LTVYAWERGSMKTHFNTAQGFRTV [OAS1]	2.72 ± 0.57	2.52 ± 0.21
LVDHVGSKTFLCIGSSVMAASLVT [SLC2A12]	3.06 ± 0.76	3.05 ± 0.57
LVGLATAAFGHVQRAEMLPKTSGT [CPOX]	2.9 ± 0.3	2.91 ± 0.14

Sequence	protein stability index (treatment: DMSO)	protein stability index (treatment: MLN4924 1 uM, 8 h)
LWWDPIQRLLFSGASDNSIIMWDI [WDFY1]	2.65 ± 0.54	2.69 ± 0.83
LYLRVELSDVQNPAISITENVLHF [HACD3]	2.82 ± 0.57	2.88 ± 0.64
MAAVLNAERLEVSVDGLTLSPDPE [ACBD3]	4.41 ± 0.17	4.59 ± 0.17
MAEAAALVWIRGPGFGCKAVRCAS [SDE2]	2.45 ± 0.47	2.35 ± 0.53
MAQPLCIRALLNLHTDVGSVRMRR [NEK8]	2.48 ± 0.16	2.58 ± 0.099
MCRVDLRGHMPEWYTKSFGHLCAA [DLC1]	2.23 ± 0.43	2.1 ± 0.53
MDSGTRPVGSCCSSPAGLSREYKL [RIT1]	3.35 ± 0.18	3.3 ± 0.16
METSASSSQPQDNSQVHRETEDVD [TMEM40]	5.54 ± 0.25	5.56 ± 0.32
MEVGSGSRELSLRPSRSGAQQLEE [EID1]	5.43 ± 0.23	5.25 ± 0.35
MFPGVLLPLLESCSVRPDASVSSH [TCF25]	2.62 ± 0.38	2.18 ± 0.2
MGCLGVAKEDGKADTKKRHTPRGH [SMOC2]	5.15 ± 0.17	5 ± 0.12
MKACQEDDVRLLCHLTPSIYTEFP [INTS3]	2.62 ± 0.28	2.55 ± 0.25
MKAKQEALVKEREKQLAKKEQSKE [FAM50A]	5.62 ± 0.24	5.55 ± 0.13
MKCQSYCEPPSYRPMHHEDFKEDL [CDC25A]	3.77 ± 0.16	4.02 ± 0.23
MLAIITKMTLTQVSTWFANARRRL [IRX6]	2.29 ± 0.49	2.26 ± 0.27
MLDSALRFQAMEETHLRHMKALLG [FCHO1]	2.23 ± 0.37	2.33 ± 0.25
MLESPGAPCRSAQASVSCALEALE [HDAC6]	3.35 ± 0.58	3.38 ± 0.4
MPPKFKRHLNDDDVTGSVKSERRN [VAMP4]	4.79 ± 0.27	4.84 ± 0.18
MPSWASARDRQPSDFKTDKEGGQA [ELOA2]	5.14 ± 0.43	5.2 ± 0.22
MQCLISNVEAQLSEIRCDLERQNQ [KRT36]	3.53 ± 0.11	3.32 ± 0.22
MQGAYCTFPASVLAPVPTHSTVSE [DUSP5]	3.47 ± 0.2	3.61 ± 0.17
MQKRSKAIHSSDEDEDEDDEEDFE [WASL]	4.58 ± 0.23	4.69 ± 0.21
